Experimental findings from the DeepSol protein solubility set are described below.

This data set in a line: soluble on expression in E. coli; label from the status in PepcDB or PDB records.
For “MGHHHHHHSHAESIKNQMTVKEWEKVFEMSQDKNLYHNLCTSLFPTIHGNDEVKRGVLLMLFGGVPKTTGEGTSLRGDINVCIVGDPSTAKSQFLKHVEEFSPRAVYTSGKASSAAGLTAAVVRDEESHEFVIEAGALMLADNGVCCIDEFDKMDVRDQVAIHEAMEQQTISITKAGVKATLNARTSILAAANPISGHYDRSKSLKQNINLSAPIMSRFDLFFILVDECNEVTDYAIARRIVDLHSRIEESIDRVYSLDDIRRYLLFARQFKPKISKESEDFIVEQYKHLRQRDGSGVTKSSWRITVRQLESMIRLSEAMARMHCCDEVQPKHVKEAFRLLNKSIIRVETPDVNLDQEEE”, the “soluble on expression in E. coli” value is on record as “not soluble”.
The result for “MGSDKIHHHHHHMIDLSTDYLGLKLKNPLVPSASPLSRNLDNALRLEDAGAAALVMYSLFEEELRAEDAMLDRFLTCPDFGHSEAANFLPSAPFEDGLERYVSQLQKLKARLGIPVIASLNGVSRSGWVELGRALEEAGADALELNVYHVAAEMWENGEAVEARYLSLLRDLRHAVKLPIVMKLSPFFSSLPNFVKRLEHAGAQGVVLFNRFYQPDIDLDTLCVVDRLHLSYPDEALLRIRWLSILHGRTGLTLAATGGVHSHDEALKMLLVGADVIHLASCLLQHGPARLTRILQDIERWMGERDYASVAQLKGSMSQKNLLDPAAMARLSYLRVLDSFSPQPGVWS” reads “not soluble”; that for “MGKWRYLAIGVCLMTTSGVTFADSLDAQRQRYQQVKLAWDSNQMDTVAQLMPTLRDYPLYPYLEYRQLTQDLSQVSTAQVKDFLNRHPTLPPAKSLPSRFVNELARREDWRGLLTFSPTAPKPVAARCNYYYAKWATGEQSVAWEGASEIWLNGQSLPGSCDKLFSVWQQAGHQTPLATLARMKLALKEGNASLVSYLLKQLPADYQTMGTALAKLQSDPSSVESFARTVGPTDFTRSATTIAFTRLARQDVENARLMIPSLVRLQKMSDSEKLELEEAVAWRLMGNDATYEQAKWRDQVALRSHSTSLLERRIRMSLGSGDRQGLATWLARLPAEAQDKDEWRYWRASLLLEQGKKAEGEAILRSLTKERGFYPMVAAQKLNIPYPIKVQVAAKPDVSLAQRPEIARVRELMYWNMDNQARAEWSYLVASRSKAEQEALARYAFDQKWADLSVQATIVAKLWDHLEERFPMAWTKEFRQFTEDKGITPSYAMAIARQESAWNPKAQSPVGATGLMQVMPRTAEHTVKRNNIAGYLNSSQLLDPVTNIEIGTYYLEEVYQQFGRNRILSSAAYNAGPSRVNTWLGNSGGQVDAVAFIESIPFSETRGYVKNVLAYDAFYRHFMNRPAKVLSDAEWQRRY”, “soluble”; that for “MSRFRSLLQASVNATKKALTWNVEEWVPPAEKHIFKFHSKEDLKKWHLYSDSEYGGLSSASLEIPDKGDGSDCTGVFSGNLSVDLSEGSKWNISRSGFCGMRSKKFDGFIDLDGYDAIALRIRGDGRCYISTIYTENWVNSPGQSEDNSWQAFVFAPKDSWYTAKIPLARYLPTWRGNVIDVEMEMNPGRVLGMSLSVNAEGGAVGAKSGAGDFRVEIDWIKALRLP”, “soluble”.
The result for “MSLNDKVTAVRDVWRYEQGEISKVEDRMVTEFPLTVILNGSEFVTLVCTPEHIEELVIGFLASEGVIRFQKEIKRFTIDESLGFVYVDLVHPETLDQKDYTKRVIGSCCGKGRHFYFQQDVKTAKTAVSQIKISPEACLALMKDMQQGSGTFQDTGGVHNAALCDTEKLLLMRTDIGRHNALDKLYGHCLLNGMSVRDKLIVFSGRISSEVLLKAAKIGVSIVISKSAPTELAIQMAEELNITAIGFVRNGSFNVYTHPERIREEGHHHHHH” reads “soluble”; that for “MLELNFSQTLGTHCLTLNETLPASGITAIFGVSGAGKTSLINAISGLTRPQKGRIALNGRVLHDAENGICLTPEKRRIGYVFQDARLFPHYKVRGNLRYGMAKSMTGQFDKLVSLLGIEALLDRLPGSLSGGEKQRVAIGRALLTAPELLLLDEPLASLDIPRKRELLPYLQRLAREINIPMLYVSHSLDEILHLADKVMVLEDGQVKAFGPLEEVWGSSVMHPWLPKEQQSSILKVSVLEHHPHYAMTALALGDQHLWVNKLNQPLQSTLRIRIQASDVSLVLQPPQQTSIRNVLRAKVANCYDDNGQVEVQLEIGGRTLWARISPWARDELNIKPGLWLYAQVKSVSITA”, “not soluble”; that for “MARKLIDISVPLQNDVPADPPGNHPTIQYIDHQQGLPRMLQFFPGLKAEDLPDGQGWAVEQVSLSTHNGTHLDAPWHFHPTMNRGERALTIDEVPLDWCLQPGVKLDFRHLPDGYVVTAKDVENELERIGHTLAPLEIVVVNTSAGAKFGRPDYVNSGCGVGYEATMYLLERGVRLTGTDAWSWDAPFVFTAQRYAETKDASLIWEGHKASRHIGYCHLEKLHNLELLPATGFMVSCFPVKIERASAGWTRAVAILNDAAALEHHHHHH”, “soluble”.
As for “MGSDKIHHHHHHMKAVILAAGRGSRLQALTDERPKALVPFNGVPLLQRAIETLRRCDVSEVGIVAGYRSEMLAPFADTLFYNHRWHSSGIFSSLNCASDWLSAEPCLVSYGDIFYDSTLVSELINHPADIVLGYDPAAVRLWQQRFNDPLPDLENFRLVDGWVSAIGQTATSLEVIQGQYMGLFKVTPAGWQALKKQLQGLTPQARDQTDMTSLLGTLVSEGFPVAGVATHAPWGEIDCPSDVALYERIYPDR”, the “soluble on expression in E. coli” value is reported as “not soluble”.
To “GASIVGSWVEPVPGLEGQVQGIKMEEGGVASSVNMATLVYESWKQEGTKLILTGKSIGNGQTIEFVDTMDIKRLTADSLVLDNQGMEIRYAKQK” belongs “soluble”.
Take “MGSDKIHHHHHHMRKMRVLAIGNVFNPSGVSVHIINVLKELVKMGDEVFLYVPSFLVRRNYEVLKDLENAHISVHHSVYETKEAEEVGTLPYFIRSHTVYLRWNNLGEDRKYIDELKDIKPDVIYDMHEDSITLRLSYHIAKRLNKPLVKLLHDEPFRNSFGRGYRKFLGIKGLAYDTLMWMFYKFDKRAFLRSINDGILRGIAGVSKAPFYLSGIEEIAHSVRLKVYEVGNAFNKDIIYKYRRTRGKEDYAVFFARLVPQKGIKELPKIADLLDSKIVVFGKIFNENDRSILMSHPKIEYKGYRPIEEVYNTVAKAKVLIYPSHQDGFSLVVLDTLALGTSVVAYDIPAIRFVFSSLKPVRTVREYDIKEMASTANSILRMKDEEYESEHEDEKVKKFLELHSSWANVAKETHDFLSAFL”: the “soluble on expression in E. coli” value is “not soluble”.
Consider “MTISVEKPIFEEEVSAFEKSGDNIGELKLDGGFSMPKMDTNDDEAFLAPEMNAFGRQFRDYDVESERQKGVEEFYRLQHINQTVDFVKKMRAEYGKLDKMVMSIWECCELLNEVVDESDPDLDEPQIQHLLQSAEAIRKDYPNEDWLHLTALIHDLGKVITLPQFGGLPQWAVVGDTFPVGCAFDESNVHHKYFVENPDFHNETYNTKNGIYSEGCGLNNVMMSWGHDDYMYLVAKENGSTLPSAGQFIIRYHSFYPLHTAGEYTHLMNEEDKENLKWLHVFNKYDLYSKSKVHVDVEKVKPYYMSLIKKYFPENLRW”, for which the “soluble on expression in E. coli” value is recorded as “soluble”.
The result for “MRGSHHHHHHGSEYPERPVNMVVPFAAGGPTDNVARSLAESMRPTLGETVVVENKGGAGGTIGTTQVARAQPDGYSILLMHAGFSTAPSLYKNPGYEPYTSFEPIGLVVDVPMTIIARGDFPPNNIKELAEYVKKNADKISLANAGIGAASHLCGTMLVEALGVNLLTIPYKGTAPAMNDLLGKQVDLMCDQTTNTTQQITSGKVKAYAVTSLKRVPTLPDLPTMDESGYKGFEVGIWHGMWAPKGTPKPVVDKLVKSLQAGLADPKFQERMKQLGAEVLTNEANPEALQAKVKQQVPQWAELFKKAGVEKQ” reads “soluble”.
To “MTKSKSKKEDLIPEIGDFTKFFKSRSKFSDQITDVISNVYEWSTSLEPSEDNLPLPFVSKNEEVVWSYLKHQNKQLDGINKKYKGFLSELIGKSHIRVAAKIQDSEGSEDGSDGSDGGSEEELDDDEEELEDEELEDEMIDDEDEADLFNLSESDLKTLDADLKKMEEEEAGEEKEEVEKATEQPKKFKKSIVDDQFFNLDEMHDFLQKTERAGGKKAAQDEEMMFEDEDSWDGKTDYTYEDFFGSRETVAETEKMNGEKKKIEKDKKRKAGDKADLSLDDGKNKKRVRFAMDEEPEEEEVEDEEQEDINDEEEPPEDEPVLLGADLEEPKEESAFAKRQSKMKERIAKLEEENLAPKSWELSGEVAADQRDQNTLLEKHVDFDHGAKRAPEVTEEFTDRLESLIKQRIRDKAWDDVIRVKKVEAKGAKFETEAIENQMNQKTSLAEVYEKEYQNSTGNSADGAAGATKPNEAHEAIKSKMGDLFRLIDALTHFEYKPDQAREEVKVVSNMAALRVEEVGITASTEAQLMAPEEISKKMKAIEKSKDERDATDKARERRQKKAKQRSMLEKFGEERVFGEQKAVKLAKKERKAGKEKGGGVDKIKSSNFFAKLQETVAAEKKDGAVTKKKKKIVKRLKSDKNSAAIKL” belongs “not soluble”; to “MGSDKIHHHHHHMIINNVNMVLSQEIIHGSLEVRNGVIHHINDRPSRHPGALDGEQAWLLPGLVELHTDNLDKCFTPRPGVNWPSEAAMRNHDALIISSGITTVLDAVAVGDVRDGGHRLENLRRMTDAVLYSQQHGTNRADHHLHLRCELPHQDTFPLFEQLADIPLVALASLMDHSPGQRQFSSQEKYHQYYKGKYHLNDEQMAAFEEEQLAGSRRWSQPNREAIVRLCHEKGITLASHDDATSEHITESHQHRVAIAEFPTTEIAAQQAHGVGMNVLMGAPNVICGGSHSGNVSAHHLATLGVLHILSSDYYPASLLEAAFMIAEDERNDYDLPRAIALVSNNPAQALKFDDRGCIEEGRRADLLLVKRHAPQMKLMRVWRQGVRVF”, “not soluble”; to “MLSRSAKPVAPNSPLMALLPYSFNRPINVLVMGLDQSETGEQAEKFDTRSDTLLLLRFDPLEGTTSLLSIPRDTQVAIPGYGTTKINAANVFGGPALAADVVSRTLNDVPIDRYLRIDTTAFKELVDLVGGVEVYVPKPMRYTDNTQKLYIDLPAGRQTLNGDQAEQFARFRYDELGDIGRVQRQQMLLRALREKLANPLILTKAPDLVKVLQKYVDTNLSFEELMALVSIGLQQDLANIRMVMLPGRPIMQDDVSYWRLDEGARDRLVSDFFNQISIQPIDRLAFEDLRVAIQDSSGKPEAAQALAESLAKLGIRRVYIIEDWPEPLEKTQIIAQRGDLIQAEGLQQQLNLGEVRASSDGDIGSDLTIRIGQDWQPTPSPKPLEHHHHHH”, “soluble”.
Regarding “MKTVMATGTFDIIHPGHGFFLEEARKLGGEDARLVVVLARDSTVRARKRTPIVGEKQRLEVVRMLKPVDEAYLGSETDMFEIVHRIKPDIIAIGPDQKFDVDELRDELRRRGLGCEVRRIEKYRDAELDSTCKIIKRIRSMEFDEDSLKNC”, the “soluble on expression in E. coli” value is on record as “not soluble”.
The result for “MKKIHPSAVIEEGAQLGDDVVIEAYAYVSKDAKIGNNVVIKQGARILSDTTIGDHSRVFSYAIVGDIPQDISYKEEQKSGVVIGKNATIREFATINSGTAKGDGFTRIGDNAFIMAYCHIAHDCLLGNNIILANNATLAGHVELGDFTVVGGLTPIHQFVKVGEGCMIAGASALSQDIVPFCLAEGNRASIRSLNLVGIRRRFDKDEVDRLSRAFKTLFRQGDLKENAKNLLENQESENVKKMCHFILETKRGIPVYRGKNNA” reads “soluble”; that for “MSLKITLFGGAGFLGSHVCDKLSEAGHDVTVVDLRPSPYLRPDQTMITGNILDEELVARAVEGADMVFNYAGIADIGEANRRPVDTARINVLGNVIALEACRKAGVKRYVFASSLYVYGKSGGFYRCSKQACELYIENYQAMHGLDYTILRYGSLYGSRADIRNAINRFVAEALEKGAITYYGSPTALREYIHVEDAALCTVEVLKPEYANENIVLSGNQPMRVGDLFKMIGEMLGKDIEVVYQHDPNSGHYQITPYAFMPKVGKKMTPILTTDLGQGILRVMEDVHREMHPDMHDVGGYLVSKDEGHHHHHH”, “soluble”.
